From patent US8900593B2 (Indiana University Research and Technology Corporation, priority 2007, dated 2014)
Where two headings read alike, the source gives them in different places. Each block holds one compound with its values, some of them ahead of it. Bridges are numbered along the chain shown (N, C = ends). Where no end group is shown, it is not given here. [ ]: non-standard residue; d: D form. Aib = CC(C)(N)C(=O)O

What was measured:
GLP-1 receptor = target: T1, GLP-1 receptor (Homo sapiens, UniProt P43220); assay: Functional assay-cAMP synthesis, luciferase reporter in HEK293 cells co-transfected with GLP-1 receptor; type: cell-based; details: for GLP 1 Receptor Relative Potency (%): Table 11, relative to GLP-1-VKGG30 (SEQ ID NO: 527) = 100; for Parent w/PEG % Potency Relative to Native GLP-1R / Parent w/o PEG % Potency Relative to Native GLP-1R: Table 12; for Parent w/PEG % Potency Relative to Native GLP-1R: pegylated peptide; for Parent w/o PEG % Potency Relative to Native GLP-1R: peptide without PEG
T1 construct: expressed in transfected cells; host or cells: HEK293

glucagon receptor = target: T2, glucagon receptor (Homo sapiens, UniProt P47871); assay: Functional assay-cAMP synthesis, luciferase reporter in HEK293 cells co-transfected with glucagon receptor; type: cell-based; details: for Parent w/PEG % Potency Relative to Native GR / Parent w/o PEG % Potency Relative to Native GR: Table 12; for Parent w/PEG % Potency Relative to Native GR: pegylated peptide; for Parent w/o PEG % Potency Relative to Native GR: peptide without PEG
T2 construct: expressed in transfected cells; host or cells: HEK293

[1] = read-out: cAMP Induction Glucagon Receptor EC50, Table 3, pegylated glucagon analogs

T2 sequence (P47871 26-477): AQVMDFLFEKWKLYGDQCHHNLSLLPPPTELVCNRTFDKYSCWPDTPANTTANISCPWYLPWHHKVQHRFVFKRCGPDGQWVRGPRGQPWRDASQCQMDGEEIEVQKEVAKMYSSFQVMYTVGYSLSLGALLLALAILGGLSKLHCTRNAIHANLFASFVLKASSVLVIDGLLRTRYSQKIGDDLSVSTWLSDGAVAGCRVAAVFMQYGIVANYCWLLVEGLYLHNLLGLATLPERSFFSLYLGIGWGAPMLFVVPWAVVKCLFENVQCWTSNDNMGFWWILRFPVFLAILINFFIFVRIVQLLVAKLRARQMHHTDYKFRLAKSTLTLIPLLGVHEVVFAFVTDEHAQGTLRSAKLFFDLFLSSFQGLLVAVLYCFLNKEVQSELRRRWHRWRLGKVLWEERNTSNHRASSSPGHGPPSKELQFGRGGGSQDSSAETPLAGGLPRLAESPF
T1 sequence (P43220 24-463, species assumed): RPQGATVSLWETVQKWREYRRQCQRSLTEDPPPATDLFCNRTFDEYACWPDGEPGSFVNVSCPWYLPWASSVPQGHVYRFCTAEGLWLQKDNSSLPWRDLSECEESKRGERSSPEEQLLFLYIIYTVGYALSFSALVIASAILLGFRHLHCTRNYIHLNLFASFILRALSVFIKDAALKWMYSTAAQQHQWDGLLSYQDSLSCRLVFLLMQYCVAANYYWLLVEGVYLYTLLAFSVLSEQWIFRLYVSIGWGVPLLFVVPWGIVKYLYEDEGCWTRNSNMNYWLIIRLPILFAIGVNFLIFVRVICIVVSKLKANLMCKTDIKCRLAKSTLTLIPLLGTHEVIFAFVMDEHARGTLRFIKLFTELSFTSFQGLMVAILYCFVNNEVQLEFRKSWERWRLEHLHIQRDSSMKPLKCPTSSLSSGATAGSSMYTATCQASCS

Compound: HX2QGT FTSDYSKYLDEQAAKEFIAWLMNC*a (H[Aib]QGTFTSDYSKYLDEQAAKEFIAWLMNC-NH2; also: optional PEG on Cys29) [Chimera AIB2, Cys29 (SEQ ID NO: 487), X2=AIB; C* is Cys or Cys attached to PEG]
Parent w/PEG % Potency Relative to Native GLP-1R (GLP-1 receptor): 54.3%
Parent w/o PEG % Potency Relative to Native GLP-1R (GLP-1 receptor): 124.6%
Parent w/PEG % Potency Relative to Native GR (glucagon receptor): 5.6%
Parent w/o PEG % Potency Relative to Native GR (glucagon receptor): 20.1%

Compound: HX2QGT FTSDYSKYLDEQAAKEFIAWLMNGGPSSGAPPPSC*a (H[Aib]QGTFTSDYSKYLDEQAAKEFIAWLMNGGPSSGAPPPSC-NH2; also: optional PEG on Cys40) [X2=AIB; C* is Cys or Cys attached to PEG]
Parent w/PEG % Potency Relative to Native GLP-1R (GLP-1 receptor): 68.8%
Parent w/o PEG % Potency Relative to Native GLP-1R (GLP-1 receptor): 359.1%
Parent w/PEG % Potency Relative to Native GR (glucagon receptor): 0.3%
Parent w/o PEG % Potency Relative to Native GR (glucagon receptor): 2.2%

Compound: CSCC[C@H](NC(=O)[C@H](CC(C)C)NC(=O)[C@H](Cc1c[nH]c2ccccc12)NC(=O)[C@H](CCC(N)=O)NC(=O)[C@@H](NC(=O)[C@H](Cc1ccccc1)NC(=O)[C@H](CC(=O)O)NC(=O)[C@H](CCC(N)=O)NC(=O)[C@H](C)NC(=O)[C@H](CCCNC(=N)N)NC(=O)[C@H](CCCNC(=N)N)NC(=O)[C@H](CO)NC(=O)[C@H](CC(=O)O)NC(=O)[C@H](CC(C)C)NC(=O)[C@H](Cc1ccc(O)cc1)NC(=O)[C@H](CCCCN)NC(=O)[C@H](CO)NC(=O)[C@H](Cc1ccc(O)cc1)NC(=O)[C@H](CC(=O)O)NC(=O)[C@H](CO)NC(=O)[C@@H](NC(=O)[C@H](Cc1ccccc1)NC(=O)[C@@H](NC(=O)CNC(=O)[C@H](CCC(N)=O)NC(=O)[C@H](CO)NC(=O)[C@@H](N)Cc1c[nH]cn1)[C@@H](C)O)[C@@H](C)O)C(C)C)C(=O)N[C@@H](CC(=O)O)C(=O)NCC(=O)NCC(=O)N1CCC[C@H]1C(=O)N[C@@H](CO)C(=O)N[C@@H](CO)C(=O)NCC(=O)N[C@@H](C)C(=O)N1CCC[C@H]1C(=O)N1CCC[C@H]1C(=O)N1CCC[C@H]1C(=O)N[C@@H](CO)C(N)=O [-MDGG^30 PSSGAPPPS (SEQ ID NO: 525)]
EC50 (GLP-1 receptor): 0.13 nM

Compound: CSCC[C@H](NC(=O)[C@H](CC(C)C)NC(=O)[C@H](Cc1c[nH]c2ccccc12)NC(=O)[C@H](CCC(N)=O)NC(=O)[C@@H](NC(=O)[C@H](Cc1ccccc1)NC(=O)[C@H](CC(=O)O)NC(=O)[C@H](CCCCN)NC(=O)[C@H](C)NC(=O)[C@H](CCCNC(=N)N)NC(=O)[C@H](CCCNC(=N)N)NC(=O)[C@H](CCC(=O)O)NC(=O)[C@H](CC(=O)O)NC(=O)[C@H](CC(C)C)NC(=O)[C@H](Cc1ccc(O)cc1)NC(=O)[C@H](CCCCN)NC(=O)[C@H](CO)NC(=O)[C@H](Cc1ccc(O)cc1)NC(=O)[C@H](CC(=O)O)NC(=O)[C@H](CO)NC(=O)[C@@H](NC(=O)[C@H](Cc1ccccc1)NC(=O)[C@@H](NC(=O)CNC(=O)[C@H](CCC(N)=O)NC(=O)[C@H](CO)NC(=O)[C@@H](N)Cc1c[nH]cn1)[C@@H](C)O)[C@@H](C)O)C(C)C)C(=O)N[C@@H](CC(=O)O)C(=O)NCC(=O)NCC(=O)N1CCC[C@H]1C(=O)N[C@@H](CO)C(=O)N[C@@H](CO)C(=O)NCC(=O)N[C@@H](C)C(=O)N1CCC[C@H]1C(=O)N1CCC[C@H]1C(=O)N1CCC[C@H]1C(=O)N[C@@H](CO)C(N)=O
EC50 (GLP-1 receptor): 0.02 nM

Compound: CSCC[C@H](NC(=O)[C@H](CC(C)C)NC(=O)[C@H](Cc1c[nH]c2ccccc12)NC(=O)[C@H](CCC(N)=O)NC(=O)[C@@H](NC(=O)[C@H](Cc1ccccc1)NC(=O)[C@H](CC(=O)O)NC(=O)[C@H](CCC(N)=O)NC(=O)[C@H](C)NC(=O)[C@H](CCCNC(=N)N)NC(=O)[C@H](CCCNC(=N)N)NC(=O)[C@H](CO)NC(=O)[C@H](CC(=O)O)NC(=O)[C@H](CC(C)C)NC(=O)[C@H](Cc1ccc(O)cc1)NC(=O)[C@H](CCCCN)NC(=O)[C@H](CO)NC(=O)[C@H](Cc1ccc(O)cc1)NC(=O)[C@H](CC(=O)O)NC(=O)[C@H](CO)NC(=O)[C@@H](NC(=O)[C@H](Cc1ccccc1)NC(=O)[C@@H](NC(=O)CNC(=O)[C@H](CCC(N)=O)NC(=O)[C@H](CO)NC(=O)[C@@H](N)Cc1c[nH]cn1)[C@@H](C)O)[C@@H](C)O)C(C)C)C(=O)N[C@@H](CC(N)=O)C(=O)NCC(=O)NCC(=O)N1CCC[C@H]1C(=O)N[C@@H](CO)C(=O)N[C@@H](CO)C(=O)NCC(=O)N[C@@H](C)C(=O)N1CCC[C@H]1C(=O)N1CCC[C@H]1C(=O)N1CCC[C@H]1C(=O)N[C@@H](CO)C(N)=O [-MNGG^30 PSSGAPPPS (SEQ ID NO: 522)]
EC50 (GLP-1 receptor): 0.31 nM
GLP 1 Receptor Relative Potency (%) (GLP-1 receptor): 8%

Compound: HSQGTFTSDYSKYLDEQAAKEFIAWLMNT-NH2 [E16 GLP(17-26)Glu(27-29)-NH2, HSQGTFTSDYSKYLDEQAAKEFIAW LMNTa]
EC50 (glucagon receptor; Glucagon Receptor EC50(nM), Table 10, GLP-1 17-26 glucagon analogs): 0.076 nM

Further lines, results first:

GLP 1 Receptor Relative Potency (%) (GLP-1 receptor): 100%
EC50 (GLP-1 receptor; read-out: GLP 1 Receptor EC50): 0.025 nM
Compound: CC[C@H](C)[C@H](NC(=O)[C@H](Cc1ccccc1)NC(=O)[C@H](CCC(=O)O)NC(=O)[C@H](CCCCN)NC(=O)[C@H](C)NC(=O)[C@H](C)NC(=O)[C@H](CCC(N)=O)NC(=O)CNC(=O)[C@H](CCC(=O)O)NC(=O)[C@H](CC(C)C)NC(=O)[C@H](Cc1ccc(O)cc1)NC(=O)[C@H](CO)NC(=O)[C@H](CO)NC(=O)[C@@H](NC(=O)[C@H](CC(=O)O)NC(=O)[C@H](CO)NC(=O)[C@@H](NC(=O)[C@H](Cc1ccccc1)NC(=O)[C@@H](NC(=O)CNC(=O)[C@H](CCC(=O)O)NC(=O)[C@H](C)NC(=O)[C@@H](N)Cc1c[nH]cn1)[C@@H](C)O)[C@@H](C)O)C(C)C)C(=O)N[C@@H](C)C(=O)N[C@@H](Cc1c[nH]c2ccccc12)C(=O)N[C@@H](CC(C)C)C(=O)N[C@H](C(=O)N[C@@H](CCCCN)C(=O)NCC(=O)NCC(N)=O)C(C)C [GLP-1-VKGG^30 (SEQ ID NO: 527), HAEGTFTSDVSSYLEGQAAKEFIAW LVKGGa, reference compound]

Percent Potency Relative to Native Ligand GLP-1Rec (GLP-1 receptor; Table 9, E16/lactam analogs, relative to native GLP-1): 63.0%
Percent Potency Relative to Native Ligand GRec (glucagon receptor; Table 9, E16/lactam analogs, relative to native glucagon): 180.8%
Compound: HSQGTFTSDYSKYLDERRAKDFVQW LMNTa [E16K20 Gluc-NH2 Lac] (HSQGTFTSDYSKYLDERRAKDFVQWLMNT-NH2; lactam 16-20; N-terminus assumed; SMILES CSCC[C@H](NC(=O)[C@H](CC(C)C)NC(=O)[C@H](Cc1c[nH]c2ccccc12)NC(=O)[C@H](CCC(N)=O)NC(=O)[C@@H](NC(=O)[C@H](Cc1ccccc1)NC(=O)[C@H](CC(=O)O)NC(=O)[C@@H]1CCCCNC(=O)CC[C@H](NC(=O)[C@H](CC(=O)O)NC(=O)[C@H](CC(C)C)NC(=O)[C@H](Cc2ccc(O)cc2)NC(=O)[C@H](CCCCN)NC(=O)[C@H](CO)NC(=O)[C@H](Cc2ccc(O)cc2)NC(=O)[C@H](CC(=O)O)NC(=O)[C@H](CO)NC(=O)[C@@H](NC(=O)[C@H](Cc2ccccc2)NC(=O)[C@@H](NC(=O)CNC(=O)[C@H](CCC(N)=O)NC(=O)[C@H](CO)NC(=O)[C@@H](N)Cc2c[nH]cn2)[C@@H](C)O)[C@@H](C)O)C(=O)N[C@@H](CCCNC(=N)N)C(=O)N[C@@H](CCCNC(=N)N)C(=O)N[C@@H](C)C(=O)N1)C(C)C)C(=O)N[C@@H](CC(N)=O)C(=O)N[C@H](C(N)=O)[C@@H](C)O)

EC50 (glucagon receptor; [1]): 0.82 ± 0.15 nM
Compound: Glucagon Cys^17 Mal-PEG-5K [Glucagon C17 PEG 5K]

EC50 (glucagon receptor; [1]): 0.96 ± 0.07 nM
Compound: Glucagon Cys^29 Mal-PEG-5K [Glucagon C29 PEG 5K]
